Results as given in US20140186359A1 (TORAY INDUSTRIES, published 2014).

T1: human CAPRIN-1 expressed on the surface of human cancer cells (human, UniProt Q14444 2-709)
T1 sequence: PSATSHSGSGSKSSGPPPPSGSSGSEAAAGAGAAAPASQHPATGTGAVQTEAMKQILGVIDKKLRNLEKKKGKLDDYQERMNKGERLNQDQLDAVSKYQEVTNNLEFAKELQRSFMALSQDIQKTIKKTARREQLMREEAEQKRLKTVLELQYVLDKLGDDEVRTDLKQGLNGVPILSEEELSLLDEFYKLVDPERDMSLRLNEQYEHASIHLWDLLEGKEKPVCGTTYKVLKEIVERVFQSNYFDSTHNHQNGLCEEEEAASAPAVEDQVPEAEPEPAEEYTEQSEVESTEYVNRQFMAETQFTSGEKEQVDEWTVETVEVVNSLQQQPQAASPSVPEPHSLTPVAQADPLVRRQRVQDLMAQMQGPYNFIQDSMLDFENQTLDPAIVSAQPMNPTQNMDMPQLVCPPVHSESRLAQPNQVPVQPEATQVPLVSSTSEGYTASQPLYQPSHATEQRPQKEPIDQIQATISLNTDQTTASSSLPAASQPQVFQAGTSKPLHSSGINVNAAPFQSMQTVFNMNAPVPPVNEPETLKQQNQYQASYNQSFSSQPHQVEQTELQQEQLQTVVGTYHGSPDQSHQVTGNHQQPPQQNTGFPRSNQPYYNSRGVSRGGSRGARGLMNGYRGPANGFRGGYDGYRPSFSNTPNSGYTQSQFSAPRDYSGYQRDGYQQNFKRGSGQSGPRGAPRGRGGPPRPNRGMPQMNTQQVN


The binders below were run against T1, human CAPRIN-1 expressed on the surface … (assay: cell-based or functional assay).
For ADCC cytotoxic activity (51Cr release) against Caki-2 in this document: test concentration or dose not given here.
For ADCC cytotoxic activity (51Cr release) against HCT-116 in this document: test concentration or dose not given here.
For ADCC cytotoxic activity (51Cr release) against MCF7 in this document: test concentration or dose not given here.
For ADCC cytotoxic activity (51Cr release) against MIAPaCa-2 in this document: test concentration or dose not given here.

| Binder | ADCC cytotoxic activity (51Cr release) against Caki-2 [%] | ADCC cytotoxic activity (51Cr release) against HCT-116 [%] | ADCC cytotoxic activity (51Cr release) against MCF7 [%] | ADCC cytotoxic activity (51Cr release) against MIAPaCa-2 [%] | ADCC cytotoxic activity (51Cr release) against QG56 [%] | ADCC cytotoxic activity (51Cr release) against all other cancer cell lines listed [%] | ADCC cytotoxic activity (51Cr release) against A549 [%] | ADCC cytotoxic activity (51Cr release) against Caki-1 [%] | ADCC cytotoxic activity (51Cr release) against DLD-1 [%] | ADCC cytotoxic activity (51Cr release) against MDA-MB-436 [%] |
| --- | --- | --- | --- | --- | --- | --- | --- | --- | --- | --- |
| human-mouse chimeric monoclonal antibody #3 (antibody, human IgG1, kappa, V domains shown) VH: GGGLVKPGGSLKLSCAASGFTFSSYGMSWVRQTPEKRLEWVATISSGGSYTYYPDSVKGRFTISRDNAKNTLYLQMSSLRSEDTAMYYCASLASYYFDYWGQGTTLTVSS VL: not shown | ≥ 18 | ≥ 18 | ≥ 32 | ≥ 32 | ≥ 10 | ≥ 10 | – | – | – | – |
| human-chicken chimeric monoclonal antibody #3 (antibody, V domains shown) VH: AVTLDESGGGLQTPGGGLSLVCKGSGFTFSSFGMFWVRQAPGKGLEFVASISDNGRSTYYGSAVKGRATISRDDGQSTVRLQLNNLRAEDTGTYYCAKNAYVGRGCCFSYSIDAWGHGTEVIVS VL: ALTQPASVSVNPGETVKITCSGGGSSSDAYGWYQQKSPGSAPVTLIYNGSNRPSHIPSRFSGSTSGSTNTLTITGVQVEDEAIYFCGSTDTSTSVGIFGAGTTLTV | ≥ 34 | ≥ 19 | ≥ 30 | ≥ 28 | ≥ 10 | ≥ 10 | ≥ 12 | ≥ 14 | ≥ 15 | ≥ 18 |
| human-mouse chimeric comparative monoclonal antibody 2 (antibody, human IgG1, kappa) heavy: not shown light: AVLRCSRGLLVIWISDIQLTQSPSSLAVTAGEKVTMSCKSSQSLLWSVNQKNYLSWYQQKQRQPPKLLIYGASIRESWVPDRFTGSGSGTDFTLTISNVHAEDLAVYYCQHNHGSFLPSRSEQVPSWRSNNRTVAAPSVFIFPPSDEQLKSGTASVVCLLNNFYPREAKVQWKVDNALQSGNSQESVTEQDSKDSTYSLSSTLTLSKADYEKHKVYACEVTHQGLSSPVTKSFNRGEC | < 8 | < 3 | < 5 | 7 | < 5 | < 4 | – | – | – | – |
| human-mouse chimeric comparative monoclonal antibody 5 (antibody, human IgG1, kappa) heavy: not shown light: GLFCSVERCHYQLQSSQNLLSIVNRYHYMSGNPPKLLVYPALLIYEASITKSCVPDRFTRSGSGTNFTLTINFVHADDLIFYYCQHNRGSFLPSSSVQVPRRRSNTVAAPSVFIFPPSDEQLKSGTASVVCLLNNFYPREAKVQWKVDNALQSGNSQESVTEQDSKDSTYSLSSTLTLSKADYEKHKVYACEVTHQGLSSPVTKSFNRGEC | < 8 | < 3 | < 5 | 7 | < 5 | < 4 | – | – | – | – |
| human-mouse chimeric monoclonal antibody #1 (antibody, V domains shown) VH: GPGLVQPSQSLSITCTVSGFSLTTYDLHWVRQSPGKGLEWLGVIWSGGSTDYNAAFISRLSISKDNSKSQVFFKMNSLQANDTAIYYCARNYGYSAWFAYWGQGTLVTVSA VL: DVLMTQTPLSLPVSLGDQASISCRSSQSIVHSNGNTYLEWYLQKPGQSPKLLIYKVSNRFSGVPDRFSGSGSGTDFTLKISRVEAEDLGVYYCFQGSHVPLTFGAGTKLELKR | ≥ 34 | ≥ 19 | ≥ 30 | ≥ 28 | ≥ 10 | ≥ 10 | – | – | – | – |
| human-mouse chimeric comparative monoclonal antibody 1 (antibody, human IgG1, kappa) heavy: not shown light: DIQMTQSPASLSASVGETVTITCRASGNIHNYLAWYQQKQGKSPQLLVYNAKTLADGVPSRFSGSGSGTQYSLKINSLQPEDFGSYYCQHFWSTLTFGAGTKLELKRADAAPTVSNPYDTVAAPSVFIFPPSDEQLKSGTASVVCLLNNFYPREAKVQWKVDNALQSGNSQESVTEQDSKDSTYSLSSTLTLSKADYEKHKVYACEVTHQGLSSPVTKSFNRGEC | < 8 | < 3 | < 5 | 7 | < 5 | < 4 | – | – | – | – |

Same assay, conditions: not given

| Binder | ADCC cytotoxic activity (51Cr release) against Panc-1 [%] |
| --- | --- |
| human-chicken chimeric monoclonal antibody #3 (antibody, V domains shown) VH: AVTLDESGGGLQTPGGGLSLVCKGSGFTFSSFGMFWVRQAPGKGLEFVASISDNGRSTYYGSAVKGRATISRDDGQSTVRLQLNNLRAEDTGTYYCAKNAYVGRGCCFSYSIDAWGHGTEVIVS VL: ALTQPASVSVNPGETVKITCSGGGSSSDAYGWYQQKSPGSAPVTLIYNGSNRPSHIPSRFSGSTSGSTNTLTITGVQVEDEAIYFCGSTDTSTSVGIFGAGTTLTV | ≥ 18 |
